Results published in patent WO2016071355A1 (dated 2016).
One block for each binder: values may come before it.

Columns and labels:
[1] = target: T1, soluble extracellular region of human CD38 fused to a 6-His-tag (human, UniProt P28907 43-300); assay: SPR, antibody captured on protein G, CD38-His injected
T1 construct: also called human CD38 extracellular domain with a poly-histidine tag; human CD38 antigen

Protein A = target: T2, Protein A (Staphylococcus aureus, UniProt P38507 212-269); assay: protein A affinity chromatography
T2 construct: The resin ligand is a commercial recombinant Protein A derivative

Protein G = Protein G (UniProt P19909 303-497); assay: protein G affinity chromatography, SDS-PAGE
[2] = target: T1, soluble extracellular region of human …; assay: SPR
[3] = target: T3, soluble extracellular region of cynomolgus monkey CD38 antigen fused to a 6-His-tag (cynomolgus monkey, UniProt Q5VAN0 45-301); assay: SPR
T3 construct: also called cynomolgus CD38

human CD38 on cells = human CD38 on cells (human, UniProt P28907 1-300); assay: cell-based or functional assay

- Kd [1]: 2.5 nM
B1: chimeric HB-7 antibody (antibody, human IgG1, kappa, V domains shown)
VH: KVQLQESGPSLVQPSQRLSITCTVSGFSLISYGVHWVRQSPGKGLEWLGVIWRGGSTDYNAAFMSRLSITKDNSKSQVFFKMNSLQADDTAIYFCAKTLITTGYAMDYWGQGTTVTVSS
VL: DIELTQSPSSFSVSLGDRVTITCKASEDIYNRLAWYQQKPGNAPRLLISGATSLETGVPSRFSGSGSGKDYTLSITSLQTEDVATYYCQQYWSTPTFGGGTKLEIKR

- binding result (Protein A): no binding
- binding result (Protein G): no binding
B2: BTB homodimer construct lacking the VH3 based scFv (other)
chain: DKTHTCPPCPAPEAAGGPSVFLFPPKPKDTLMISRTPEVTCVVVDVSHEDPEVKFNWYVDGVEVHNAKTKPREEQYNSTYRVVSVLTVLHQDWLNGKEYKCKVSNKALPAPIEKTISKAKGQPREPEVATFPPSRDELTKNQVTLVCLVTGFYPSDIAVEWESNGQPENNYKTDPPLLESQGSFALSSRLRVDKSRWQQGNVFSCSVMHEALHNHYTQKSLSLSPGK

- Kd [1]: 3.6 nM
B3: humanized HB-7 best-fit antibody (antibody, human IgG1, kappa, V domains shown)
VH: QVQLQESGPGLVKPSETLSLTCTVSGFSLISYGVHWVRQPPGKGLEWLGVIWRGGSTDYNAAFMSRLTISKDNSKNQVSLKLSSVTAADTAVYFCAKTLITTGYAMDYWGQGTLVTVSS
VL: DIQLTQSPSSLSASVGDRVTITCRASEDIYNRLAWYQQKPGKAPKLLISGATSLETGVPSRFSGSGSGKDYTLTISSLQPEDFATYYCQQYWSTPTFGQGTKLEIKR
notes: Human IgG1 format

- Kd [2]: 1 nM
- fold lower binding than the mouse parental antibody [2]: 3 fold
B4: first humanized 9G7 antibody prototype (antibody, human IgG1, kappa, V domains shown)
VH: QVTLKESGPTLVKPTQTLTLTCTFSGLSLSTSGKGVGWIRQPPGKALEWLAHIWWDDDKRYNPALKSRLTITKDTSKNQVVLTMTNMDPVDTATYYCARIELGRSYVMDYWGQGTLVTVSS
VL: DIQMTQSPSSLSASVGDRVTITCQASQDVITSVAWFQQKPGKAPKLLIYSASYRYTGVPSRFSGSGSGTDFTFTISSLQPEDIATYYCQQHYTIPLTFGQGTKLEIKR
notes: Human IgG1 isotype; also called first antibody prototype; first humanized prototype

- Kd [3]: 1 nM
- Kd [1]: 0.4 nM
B5: humanized 9G7 best-framework antibody (antibody, human IgG1, kappa, V domains shown)
VH: EVQLVESGGGLVQPGGSLRLSCAFSGLSLSTSGKGVGWIRQAPGKGLEWLAHIWWDDDKRYNPALKSRLTISKDTSKNTVYLQMNSLRAEDTAVYYCARIELGRSYVMDYWGQGTLVTVSS
VL: DIQMTQSPSSLSASVGDRVTITCRASQDVITSVAWFQQKPGKAPKLLIYSASYRYTGVPSRFSGSGSGTDFTLTISSLQPEDFATYYCQQHYTIPLTFGQGTKVEIKR
notes: Human IgG1

- fold improvement of affinity over the first humanized prototype [2]: 2 fold
- Kd [3]: 3.2 nM
- Kd [1]: 0.5 nM
B6: humanized 9G7 best-fit antibody (antibody, human IgG1, kappa, V domains shown)
VH: QVTLKESGPTLVKPTQTLTLTCTFSGLSLSTSGKGVGWIRQPPGKALEWLAHIWWDDDKRYNPALKSRLTITKDTSKNQVVLTMTNMDPVDTATYYCARIELGRSYVMDYWGQGTLVTVSS
VL: DIQMTQSPSSLSASVGDRVTITCQASQDVITSVAWYQQKPGKAPKLLIYSASYRYTGVPSRFSGSGSGTDFTFTISSLQPEDIATYYCQQHYTIPLTFGQGTKLEIKR
notes: Human IgG1; also called 9G7 best-fit F36Y humanized variant

- Kd [1]: 3.2 nM
B7: BEAT CD38-HB7bestfit/CD3 antibody (bispecific antibody, human IgG1, kappa, L234A L235A)
heavy: QVQLQESGPGLVKPSETLSLTCTVSGFSLISYGVHWVRQPPGKGLEWLGVIWRGGSTDYNAAFMSRLTISKDNSKNQVSLKLSSVTAADTAVYFCAKTLITTGYAMDYWGQGTLVTVSSASTKGPSVFPLAPSSKSTSGGTAALGCLVKDYFPEPVTVSWNSGALTSGVHTFPAVLQSSGLYSLSSVVTVPSSSLGTQTYICNVNHKPSNTKVDKKVEPKSCDKTHTCPPCPAPEAAGGPSVFLFPPKPKDTLMISRTPEVTCVVVDVSHEDPEVKFNWYVDGVEVHNAKTKPREEQYNSTYRVVSVLTVLHQDWLNGKEYKCKVSNKALPAPIEKTISKAKGQPREPAVYTLPPSRDELTKNQVKLVCLVTGFYPSDIAVEWESNGQPENNYYTTPPVLDSDGSFSLVSWLNVDKSRWQQGNVFSCSVMHEALHNHYTQKSLSLSPGK
light: DIQLTQSPSSLSASVGDRVTITCRASEDIYNRLAWYQQKPGKAPKLLISGATSLETGVPSRFSGSGSGKDYTLTISSLQPEDFATYYCQQYWSTPTFGQGTKLEIKRTVAAPSVFIFPPSDEQLKSGTASVVCLLNNFYPREAKVQWKVDNALQSGNSQESVTEQDSKDSTYSLSSTLTLSKADYEKHKVYACEVTHQGLSSPVTKSFNRGEC
scFv: EVQLVESGGGLVQPGGSLRLSCAASGYTFTRYTMHWVRQAPGKGLEWIGYINPSRGYTYYADSVKGRFTLSTDKSKNTAYLQMSSLRAEDTAVYYCARYYDDHYCLDYWGQGTLVTVSSGGGGSGGGGSGGGGSGGGASDIQLTQSPSSLSASVGDRVTITCRASSSVSYVAWYQQKPGKAPKRWIYDTSKLYSGVPSRFSGSGSGTDYTLTISSLQPEDFATYYCQQWSSNPPTFGQGTKVEIKGGGGTDKTHTCPPCPAPEAAGGPSVFLFPPKPKDTLMISRTPEVTCVVVDVSHEDPEVQFKWYVDGVEVHNAKTKPREEQYNSTFRVVSVLTVLHQDWLNGKEYKCKVSNKALPAPIEKTISKTKGQPREPEVATFPPSREEMTKNQVTLVCLVTGFYPSDIAVEWESSGQPENNYNTDPPLLESDGSFALSSRLRVDKSRWQQGNIFSCSVMHEALHNRFTQKSLSLSPGK
- EC50, T cell redirected killing of RPMI 8226 myeloma cells (RDL-FACS, purified T cells, 48h) (human CD38 on cells): 0.0022 nM

B8: BEAT CD38-HB7bestfit/CD3(SP34) antibody (bispecific antibody)
heavy: QVQLQESGPGLVKPSETLSLTCTVSGFSLISYGVHWVRQPPGKGLEWLGVIWRGGSTDYNAAFMSRLTISKDNSKNQVSLKLSSVTAADTAVYFCAKTLITTGYAMDYWGQGTLVTVSSASTKGPSVFPLAPSSKSTSGGTAALGCLVKDYFPEPVTVSWNSGALTSGVHTFPAVLQSSGLYSLSSVVTVPSSSLGTQTYICNVNHKPSNTKVDKKVEPKSCDKTHTCPPCPAPEAAGGPSVFLFPPKPKDTLMISRTPEVTCVVVDVSHEDPEVQFKWYVDGVEVHNAKTKPREEQYNSTFRVVSVLTVLHQDWLNGKEYKCKVSNKALPAPIEKTISKTKGQPREPAVYTLPPSREEMTKNQVKLVCLVTGFYPSDIAVEWESSGQPENNYYTTPPMLDSDGSFSLVSWLNVDKSRWQQGNIFSCSVMHEALHNRFTQKSLSLSPGK
light: DIQLTQSPSSLSASVGDRVTITCRASEDIYNRLAWYQQKPGKAPKLLISGATSLETGVPSRFSGSGSGKDYTLTISSLQPEDFATYYCQQYWSTPTFGQGTKLEIKRTVAAPSVFIFPPSDEQLKSGTASVVCLLNNFYPREAKVQWKVDNALQSGNSQESVTEQDSKDSTYSLSSTLTLSKADYEKHKVYACEVTHQGLSSPVTKSFNRGEC
scFv: not shown
- EC50, T cell redirected killing of Daudi cells (RDL-FACS, PBMCs, 24h) (human CD38 on cells): 0.0018 nM

B9: BEAT CD38-9G7Mouse/CD3 (bispecific antibody, human IgG1, kappa, L234A L235A)
heavy: not shown
light: DIVMTQSHKFMSTSVGDRVSISCKASQDVITSVAWFQQKPGQSPKLLIYSASYRYTGVPDRFTGSGSGTDFTFTISSVQAEDLAVYYCQQHYTIPLTFGAGTKLELKRTVAAPSVFIFPPSDEQLKSGTASVVCLLNNFYPREAKVQWKVDNALQSGNSQESVTEQDSKDSTYSLSSTLTLSKADYEKHKVYACEVTHQGLSSPVTKSFNRGEC
scFv: EVQLVESGGGLVQPGGSLRLSCAASGYTFTRYTMHWVRQAPGKGLEWIGYINPSRGYTYYADSVKGRFTLSTDKSKNTAYLQMSSLRAEDTAVYYCARYYDDHYCLDYWGQGTLVTVSSGGGGSGGGGSGGGGSDIQLTQSPSSLSASVGDRVTITCRASSSVSYVAWYQQKPGKAPKRWIYDTSKLYSGVPSRFSGSGSGTDYTLTISSLQPEDFATYYCQQWSSNPPTFGQGTKVEIKGGGGTDKTHTCPPCPAPEAAGGPSVFLFPPKPKDTLMISRTPEVTCVVVDVSHEDPEVQFKWYVDGVEVHNAKTKPREEQYNSTFRVVSVLTVLHQDWLNGKEYKCKVSNKALPAPIEKTISKTKGQPREPEVATFPPSREEMTKNQVTLVCLVTGFYPSDIAVEWESSGQPENNYNTDPPLLESDGSFALSSRLRVDKSRWQQGNIFSCSVMHEALHNRFTQKSLSLSPGK
- EC50, killing of Daudi cells (flow cytometry, PBMCs, 48h) (human CD38 on cells): 0.0032 nM

B10: BEAT CD38-OKT10Mouse/CD3 (bispecific antibody, human IgG1, kappa, L234A L235A)
heavy: QVELVESGGSLKLSCAASGFDFSRSWMNWVRQAPGKGLEWIGEINPDSSTINYTTSLKDKFIISRDNAKNTLYLQMTKVRSEDTALYYCARYGNWFPYWGQGTLVTVSSASTKGPSVFPLAPSSKSTSGGTAALGCLVKDYFPEPVTVSWNSGALTSGVHTFPAVLQSSGLYSLSSVVTVPSSSLGTQTYICNVNHKPSNTKVDKKVEPKSCDKTHTCPPCPAPEAAGGPSVFLFPPKPKDTLMISRTPEVTCVVVDVSHEDPEVKFNWYVDGVEVHNAKTKPREEQYNSTYRVVSVLTVLHQDWLNGKEYKCKVSNKALPAPIEKTISKAKGQPREPAVYTLPPSRDELTKNQVKLVCLVTGFYPSDIAVEWESNGQPENNYYTTPPVLDSDGSFSLVSWLNVDKSRWQQGNVFSCSVMHEALHNHYTQKSLSLSPGK
light: DILMTQSQKIMPTSVGDRVSVTCKASQNVDTNVAWYQQKPGQSPKALIYSASYRYSGVPDRFTGSGSGTDFTLTITNVQSEDLAEYFCQQYDSYPLTFGAGTKLDLKRTVAAPSVFIFPPSDEQLKSGTASVVCLLNNFYPREAKVQWKVDNALQSGNSQESVTEQDSKDSTYSLSSTLTLSKADYEKHKVYACEVTHQGLSSPVTKSFNRGE
scFv: EVQLVESGGGLVQPGGSLRLSCAASGYTFTRYTMHWVRQAPGKGLEWIGYINPSRGYTYYADSVKGRFTLSTDKSKNTAYLQMSSLRAEDTAVYYCARYYDDHYCLDYWGQGTLVTVSSGGGGSGGGGSGGGGSDIQLTQSPSSLSASVGDRVTITCRASSSVSYVAWYQQKPGKAPKRWIYDTSKLYSGVPSRFSGSGSGTDYTLTISSLQPEDFATYYCQQWSSNPPTFGQGTKVEIKGGGGTDKTHTCPPCPAPEAAGGPSVFLFPPKPKDTLMISRTPEVTCVVVDVSHEDPEVQFKWYVDGVEVHNAKTKPREEQYNSTFRVVSVLTVLHQDWLNGKEYKCKVSNKALPAPIEKTISKTKGQPREPEVATFPPSREEMTKNQVTLVCLVTGFYPSDIAVEWESSGQPENNYNTDPPLLESDGSFALSSRLRVDKSRWQQGNIFSCSVMHEALHNRFTQKSLSLSPGK
- EC50, killing of Daudi cells (flow cytometry, PBMCs, 48h) (human CD38 on cells): 0.126 nM
